From article PMC4434323

Assays:
[1] = molecular target: egl-13 (T22B7.1) (Caenorhabditis elegans) (UniProt Q23045)
[2] = molecular target: T1, nhr-5 (Y73F8A.21) (Caenorhabditis elegans) (UniProt Q9NA51)
T1 sequence: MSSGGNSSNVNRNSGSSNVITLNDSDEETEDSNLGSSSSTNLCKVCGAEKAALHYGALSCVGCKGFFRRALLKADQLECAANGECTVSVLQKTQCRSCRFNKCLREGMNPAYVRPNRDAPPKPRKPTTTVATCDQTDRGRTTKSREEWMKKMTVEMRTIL

[3] = molecular target: T2, daf-12 (F11A1.3) (Caenorhabditis elegans) (UniProt G5EFF5)
T2 sequence: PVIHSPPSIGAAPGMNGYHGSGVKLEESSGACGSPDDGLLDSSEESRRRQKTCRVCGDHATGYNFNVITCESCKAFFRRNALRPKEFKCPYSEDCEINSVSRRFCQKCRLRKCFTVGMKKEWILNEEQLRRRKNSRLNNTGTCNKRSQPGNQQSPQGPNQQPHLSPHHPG

[4] = molecular target: T3, nhr-66 (T09A12.4) (Caenorhabditis elegans) (UniProt H2KYJ8)
T3 sequence: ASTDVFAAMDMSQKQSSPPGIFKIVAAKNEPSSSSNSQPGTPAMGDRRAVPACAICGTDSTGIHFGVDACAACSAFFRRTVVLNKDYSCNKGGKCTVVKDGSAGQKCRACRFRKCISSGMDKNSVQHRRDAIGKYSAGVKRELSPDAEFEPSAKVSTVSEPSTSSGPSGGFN

[5] = molecular target: T4, nhr-70 (Y51A2D.17) (Caenorhabditis elegans) (UniProt G5EEL3)
T4 sequence: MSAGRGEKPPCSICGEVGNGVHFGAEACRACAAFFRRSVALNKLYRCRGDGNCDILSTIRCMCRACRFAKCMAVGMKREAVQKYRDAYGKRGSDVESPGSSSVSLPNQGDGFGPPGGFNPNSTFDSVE

[6] = tested on: T5, slr-2 (Y59A8B.13) (Caenorhabditis elegans)
T5 sequence: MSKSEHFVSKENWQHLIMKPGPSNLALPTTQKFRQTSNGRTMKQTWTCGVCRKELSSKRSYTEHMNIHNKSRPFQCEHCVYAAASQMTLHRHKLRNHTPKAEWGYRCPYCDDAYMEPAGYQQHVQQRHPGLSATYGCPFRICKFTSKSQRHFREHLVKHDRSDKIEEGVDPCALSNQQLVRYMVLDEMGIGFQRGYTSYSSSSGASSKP

[7] = molecular target: T6, odr-7 (T18D3.2) (Caenorhabditis elegans) (UniProt P41933)
T6 sequence: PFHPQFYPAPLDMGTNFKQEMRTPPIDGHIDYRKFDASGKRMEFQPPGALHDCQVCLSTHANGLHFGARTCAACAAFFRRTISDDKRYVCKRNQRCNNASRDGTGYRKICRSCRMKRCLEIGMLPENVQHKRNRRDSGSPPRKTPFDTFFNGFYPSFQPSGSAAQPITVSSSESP

[8] = molecular target: T7, elt-6 (F52C12.5) (Caenorhabditis elegans) (UniProt G5EGN3)
T7 sequence: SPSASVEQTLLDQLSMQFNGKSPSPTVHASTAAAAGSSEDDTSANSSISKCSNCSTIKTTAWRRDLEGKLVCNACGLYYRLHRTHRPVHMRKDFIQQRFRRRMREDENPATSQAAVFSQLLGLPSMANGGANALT

[9] = molecular target: T8, elt-7 (C18G1.2) (Caenorhabditis elegans) (UniProt O61924)
T8 sequence: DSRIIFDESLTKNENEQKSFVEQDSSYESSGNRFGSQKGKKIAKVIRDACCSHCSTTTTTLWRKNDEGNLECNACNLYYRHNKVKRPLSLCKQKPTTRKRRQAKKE

[10] = molecular target: T9, mnm-2 (C10A4.8) (Caenorhabditis elegans) (UniProt Q17895)
T9 sequence: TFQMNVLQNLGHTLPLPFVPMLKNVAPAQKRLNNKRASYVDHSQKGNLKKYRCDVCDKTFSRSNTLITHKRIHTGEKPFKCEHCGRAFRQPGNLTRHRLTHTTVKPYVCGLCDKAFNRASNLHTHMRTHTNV

[11] = molecular target: T10, fkh-9 (K03C7.2) (Caenorhabditis elegans) (UniProt Q21187)
T10 sequence: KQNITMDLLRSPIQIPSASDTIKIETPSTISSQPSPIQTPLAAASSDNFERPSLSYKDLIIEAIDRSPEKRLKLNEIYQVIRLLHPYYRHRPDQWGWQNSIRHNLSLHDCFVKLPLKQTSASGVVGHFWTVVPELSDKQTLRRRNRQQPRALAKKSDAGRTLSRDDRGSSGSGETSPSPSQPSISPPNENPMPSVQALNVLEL

[12] = molecular target: T11, let-381 (F26B1.7) (Caenorhabditis elegans) (UniProt P91278)
T11 sequence: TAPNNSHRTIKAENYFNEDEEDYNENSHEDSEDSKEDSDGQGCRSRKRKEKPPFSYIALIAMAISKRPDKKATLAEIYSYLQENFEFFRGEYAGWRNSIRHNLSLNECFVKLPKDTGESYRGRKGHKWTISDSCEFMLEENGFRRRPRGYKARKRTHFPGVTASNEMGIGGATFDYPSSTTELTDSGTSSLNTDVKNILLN

[13] = molecular target: T12, daf-19 (F33H1.1) (Caenorhabditis elegans) (UniProt Q09555)
T12 sequence: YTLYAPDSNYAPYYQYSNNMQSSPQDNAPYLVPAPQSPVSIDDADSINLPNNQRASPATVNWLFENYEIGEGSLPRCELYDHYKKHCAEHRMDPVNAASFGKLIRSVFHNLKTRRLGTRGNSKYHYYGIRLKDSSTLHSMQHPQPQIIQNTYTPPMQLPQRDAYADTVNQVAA

Sequence of egl-13 (T22B7.1) (Caenorhabditis elegans) (Q23045 279-447): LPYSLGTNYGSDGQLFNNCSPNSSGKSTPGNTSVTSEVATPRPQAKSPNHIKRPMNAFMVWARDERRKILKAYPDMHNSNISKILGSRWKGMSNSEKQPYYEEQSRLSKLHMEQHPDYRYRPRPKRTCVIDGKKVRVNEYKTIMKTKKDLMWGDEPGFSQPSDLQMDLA

AAACAATA (double strand) [8-mer AAACAATA]
binding signal (PBM E-score (-0.5 to 0.5)) [1]: 0.469

AAAGAACG (double strand) [8-mer AAAGAACG]
binding signal (PBM E-score (-0.5 to 0.5)) [2]: 0.458

AAAGTACA (double strand) [8-mer AAAGTACA]
binding signal (PBM E-score (-0.5 to 0.5)) [3]: 0.497
binding signal (PBM E-score (-0.5 to 0.5)) [2]: 0.482

AAAGTACG (double strand) [8-mer AAAGTACG]
binding signal (PBM E-score (-0.5 to 0.5)) [2]: 0.462

AAAGTTCA (double strand) [8-mer AAAGTTCA]
binding signal (PBM E-score (-0.5 to 0.5)) [2]: 0.46

AACAATAA (double strand) [8-mer AACAATAA]
binding signal (PBM E-score (-0.5 to 0.5)) [1]: 0.462

AACAATAC (double strand) [8-mer AACAATAC]
binding signal (PBM E-score (-0.5 to 0.5)) [1]: 0.453

AACAATAG (double strand) [8-mer AACAATAG]
binding signal (PBM E-score (-0.5 to 0.5)) [1]: 0.485

AACTACAA (double strand) [8-mer AACTACAA]
binding signal (PBM E-score (-0.5 to 0.5)) [4]: 0.489
binding signal (PBM E-score (-0.5 to 0.5)) [5]: 0.487
binding signal (PBM E-score (-0.5 to 0.5)) [6]: 0.492

AAGTACAC (double strand) [8-mer AAGTACAC]
binding signal (PBM E-score (-0.5 to 0.5)) [3]: 0.492
binding signal (PBM E-score (-0.5 to 0.5)) [2]: 0.457

AAGTGCAC (double strand) [8-mer AAGTGCAC]
binding signal (PBM E-score (-0.5 to 0.5)) [3]: 0.498
binding signal (PBM E-score (-0.5 to 0.5)) [2]: 0.453

ACTACAAA (double strand) [8-mer ACTACAAA]
binding signal (PBM E-score (-0.5 to 0.5)) [4]: 0.492
binding signal (PBM E-score (-0.5 to 0.5)) [5]: 0.493
binding signal (PBM E-score (-0.5 to 0.5)) [7]: 0.491
binding signal (PBM E-score (-0.5 to 0.5)) [6]: 0.452

ACTGATAA (double strand) [8-mer ACTGATAA]
binding signal (PBM E-score (-0.5 to 0.5)) [8]: 0.496
binding signal (PBM E-score (-0.5 to 0.5)) [9]: 0.476

AGAGTACA (double strand) [8-mer AGAGTACA]
binding signal (PBM E-score (-0.5 to 0.5)) [2]: 0.48

AGCGCATC (double strand) [8-mer AGCGCATC]
binding signal (PBM E-score (-0.5 to 0.5)) [10]: 0.459

AGTAAACA (double strand) [8-mer AGTAAACA]
binding signal (PBM E-score (-0.5 to 0.5)) [11]: 0.485
binding signal (PBM E-score (-0.5 to 0.5)) [12]: 0.457

AGTACACT (double strand) [8-mer AGTACACT]
binding signal (PBM E-score (-0.5 to 0.5)) [2]: 0.454

AGTGCACT (double strand) [8-mer AGTGCACT]
binding signal (PBM E-score (-0.5 to 0.5)) [3]: 0.497
binding signal (PBM E-score (-0.5 to 0.5)) [2]: 0.456

ATAAACAA (double strand) [8-mer ATAAACAA]
binding signal (PBM E-score (-0.5 to 0.5)) [11]: 0.485
binding signal (PBM E-score (-0.5 to 0.5)) [12]: 0.489

ATAAACAT (double strand) [8-mer ATAAACAT]
binding signal (PBM E-score (-0.5 to 0.5)) [12]: 0.473

ATAGCAAC (double strand) [8-mer ATAGCAAC]
binding signal (PBM E-score (-0.5 to 0.5)) [13]: 0.489

ATAGTACA (double strand) [8-mer ATAGTACA]
binding signal (PBM E-score (-0.5 to 0.5)) [2]: 0.452

ATGATAAG (double strand) [8-mer ATGATAAG]
binding signal (PBM E-score (-0.5 to 0.5)) [8]: 0.491
binding signal (PBM E-score (-0.5 to 0.5)) [9]: 0.457

ATGGCAAC (double strand) [8-mer ATGGCAAC]
binding signal (PBM E-score (-0.5 to 0.5)) [13]: 0.468

ATGTTTAC (double strand) [8-mer ATGTTTAC]
binding signal (PBM E-score (-0.5 to 0.5)) [12]: 0.455

ATTGTTTA (double strand) [8-mer ATTGTTTA]
binding signal (PBM E-score (-0.5 to 0.5)) [12]: 0.467

CCTTATCA (double strand) [8-mer CCTTATCA]
binding signal (PBM E-score (-0.5 to 0.5)) [8]: 0.496
binding signal (PBM E-score (-0.5 to 0.5)) [9]: 0.469
